Where only a bound is given, the exact number is not on record here.

Experiment [1] deals with CD8+ T cells expressing a ROR1 CAR with 4-1BB costimulatory domain. Put plainly: IFN-γ ELISA, co-culture with RCH-ACV. Type of experiment: cell-based, human. As to conditions: […] nilotinib; 20 h; 1310 pg/ml by untreated CAR-T cells. (ELISA stands for enzyme-linked immunosorbent assay.)
Experiment [2] concerns CD8+ T cells expressing a CD19 CAR with 4-1BB costimulation. Description: Bioluminescence-based cytotoxicity assay, K562/CD19 target cells. Type of experiment: cell-based, human. How it is done:
Cytotoxicity: Target cells were stably transduced with ffluc_GFP and incubated in triplicate wells at 1×10^4 cells/well with effector T cells at an effector to target (E:T) ratio of 5:1. D-luciferin substrate (Biosynth, Staad, Switzerland) was added to the co-culture to a final concentration of 0.15 mg/ml and the decrease in luminescence signal in wells that contained target cells and T-cells was measured using a luminometer (Tecan, Mannedorf, Switzerland). Specific lysis was calculated using the standard formula.
The inventors prepared CD8+ CAR-T cell lines from n=3 healthy donors. In each of the T-cell lines, the inventors enriched CAR-expressing T cells to >90% purity using the EGFRt-transduction marker. The inventors analyzed cytolytic activity of CD8^+ CAR-T cells in a bioluminescence-based cytotoxicity assay using K562 that the inventors had transduced with either CD19 (for testing CD19 CAR-T cells) or ROR1 (for testing ROR1 CAR-T cells) as target cells. Dasatinib was added to the assay medium at the beginning of the assay.
The inventors prepared CD8^+ CAR-T cell lines from n=3 healthy donors. In each of the T-cell lines, the inventors enriched CAR-expressing T cells to >90% purity using the EGFRt-transduction marker. The inventors analyzed cytolytic activity of CD8^+ CAR-T cells in a bioluminescence-based cytotoxicity assay using K562 target cells that the inventors had transduced with CD19.
The CAR-T cell cytolytic activity was analyzed at 1-hour intervals for 10 hours.
The inventors analyzed cytolytic activity of CD8+ CAR-T cells in a bioluminescence-based cytotoxicity assay.
The inventors prepared CD8^+ CD19 CAR-T cell lines with a 4-1BB costimulatory domain from one healthy donor. In the T-cell line, the inventors enriched CAR expressing T cells to >90% purity using the EGFRt-transduction marker. The inventors analyzed cytolytic activity of CD8^+ CAR-T cells in a 4-hour bioluminescence-based cytotoxicity assay using K562 that the inventors had transduced with CD19 as target cells to assess the influence of a panel of Src-kinase inhibitors on the cytolytic function of CAR-T cells. Src-kinase inhibitors were added to the assay medium at the beginning of the assay over a 4-log concentration range.

Experiment [3] relates to CAR-T cells co-expressing the iCasp suicide gene. Put plainly: Elimination of iCasp+ T cells. Type of experiment: cell-based, human. As to conditions: dimerizer (10 nM AP20187) without dasatinib; 24 hours. Here is the method: After 24 hours, cells were labeled with anti-CD3 mAB and analyzed by flow cytometry for the presence of iCasp+ T cells.
After 24 hours, cells were labeled with anti-CD3 mAB and analyzed by flow cytometry for the presence of iCasp^+ T cells.

In experiment [4] the test system is CD8+ T cells expressing a CD19 CAR with 4-1BB costimulation. Put plainly: CFSE proliferation assay, co-culture with K562/CD19. In kind it is cell-based, human. As to conditions: dexamethasone, any given concentration; 24 h-pretreatment or at start of co-culture; 72 h.
For experiment [5] the test system is unchanged. Put plainly: Cytokine production and secretion (IFN-γ, IL-2 ELISA), co-culture with K562/CD19. Type of experiment: cell-based, human. The settings on record: any given concentration of dexamethasone; pre-treated or during assay only.
The target of experiment [6] is human SLAMF7 (human) (UniProt Q9NQ25). Description: cell-based or functional assay.
Experiment [7] has as its target human ROR1 (human) (UniProt Q01973). Description: cell-based or functional assay.

For the molecule `Cc1cn(-c2cc(NC(=O)c3ccc(C)c(Nc4nccc(-c5cccnc5)n4)c3)cc(C(F)(F)F)c2)cn1` [nilotinib], the “production and secretion of IFN-γ” value in experiment [1] was found to be 480 pg/mL.
Consider `Cc1ccc(-c2nn(C(C)(C)C)c3ncnc(N)c23)cc1` [PP1-inhibitor], for which the “specific lysis of target cells” value in experiment [2] (inhibitor 10 nM, 4-hour assay, 82% by untreated CAR-T cells) was found to be 62.4%.
As to `CC[C@H](C(=O)N1CCCC[C@H]1C(=O)O[C@H](CCc1ccc(OC)c(OC)c1)c1cccc(OCC(=O)NCC(CNC(=O)COc2cccc([C@@H](CCc3ccc(OC)c(OC)c3)OC(=O)[C@@H]3CCCCN3C(=O)[C@@H](CC)c3cc(OC)c(OC)c(OC)c3)c2)CN(C)C)c1)c1cc(OC)c(OC)c(OC)c1` [dimerizer, AP20187], in experiment [3], the “percentage of iCasp+ cells” value is reported as 45%.
On to `C[C@@H]1C[C@H]2[C@@H]3CCC4=CC(=O)C=C[C@]4(C)[C@@]3(F)[C@@H](O)C[C@]2(C)[C@@]1(O)C(=O)CO` [dexamethasone], for which, in experiment [4], the “remaining proliferation compared to untreated CAR-T cells” value was “less than 26%”. Further, in experiment [5], the “residual specific IFN-γ secretion compared to non-treated CAR-T cells” value is recorded as “more than 43%” and the “residual specific IL-2 secretion compared to non-treated CAR-T cells” value is recorded as “less than 17%”. Further, in experiment [2] (dexamethasone added at the beginning of the assay, any of the applied dosages (0.1-100 μM), 91% non-treated), the “specific lysis of target cells” value is given as greater than 87%. In addition, the “specific lysis of target cells” value in experiment [2] (pre-treated for 24 h with dexamethasone, all tested doses, t=10 h, 91% non-treated) is greater than 45%.

B1: SLAMF7 CAR with 4-1BB costimulatory domain (receptor)
chain: EVQLVESGGGLVQPGGSLRLSCAASGFDFSRYWMSWVRQAPGKGLEWIGEINPDSSTINYAPSLKDKFIISRDNAKNSLYLQMNSLRAEDTAVYYCARPDGNYWYFDVWGQGTLVTVSSGGGGSGGGGSGGGGSDIQMTQSPSSLSASVGDRVTITCKASQDVGIAVAWYQQKPGKVPKLLIYWASTRHTGVPDRFSGSGSGTDFTLTISSLQPEDVATYYCQQYSSYPYTFGQGTKVEIKESKYGPPCPPCPAPPVAGPSVFLFPPKPKDTLMISRTPEVTCVVVDVSQEDPEVQFNWYVDGVEVHNAKTKPREEQFQSTYRVVSVLTVLHQDWLNGKEYKCKVSNKGLPSSIEKTISKAKGQPREPQVYTLPPSQEEMTKNQVSLTCLVKGFYPSDIAVEWESNGQPENNYKTTPPVLDSDGSFFLYSRLTVDKSRWQEGNVFSCSVMHEALHNHYTQKSLSLSLGKMFWVLVVVGGVLACYSLLVTVAFIIFWVKRGRKKLLYIFKQPFMRPVQTTQEEDGCSCRFPEEEEGGCELRVKFSRSADAPAYQQGQNQLYNELNLGRREEYDVLDKRRGRDPEMGGKPRRKNPQEGLYNELQKDKMAEAYSEIGMKGERRRGKGHDGLYQGLSTATKDTYDALHMQALPPR
In experiment [6], B1 registered a specific lysis of K562/SLAMF7 target cells by CD8+ CAR-T cells without dasatinib, t=6 h of 63% and a specific lysis of K562/SLAMF7 target cells by CD8+ CAR-T cells without dasatinib, t=12 h of 83%.

B2: SLAMF7 CAR with CD28 costimulatory domain (receptor)
chain: EVQLVESGGGLVQPGGSLRLSCAASGFDFSRYWMSWVRQAPGKGLEWIGEINPDSSTINYAPSLKDKFIISRDNAKNSLYLQMNSLRAEDTAVYYCARPDGNYWYFDVWGQGTLVTVSSGGGGSGGGGSGGGGSDIQMTQSPSSLSASVGDRVTITCKASQDVGIAVAWYQQKPGKVPKLLIYWASTRHTGVPDRFSGSGSGTDFTLTISSLQPEDVATYYCQQYSSYPYTFGQGTKVEIKESKYGPPCPPCPAPPVAGPSVFLFPPKPKDTLMISRTPEVTCVVVDVSQEDPEVQFNWYVDGVEVHNAKTKPREEQFQSTYRVVSVLTVLHQDWLNGKEYKCKVSNKGLPSSIEKTISKAKGQPREPQVYTLPPSQEEMTKNQVSLTCLVKGFYPSDIAVEWESNGQPENNYKTTPPVLDSDGSFFLYSRLTVDKSRWQEGNVFSCSVMHEALHNHYTQKSLSLSLGKMFWVLVVVGGVLACYSLLVTVAFIIFWVRSKRSRGGHSDYMNMTPRRPGPTRKHYQPYAPPRDFAAYRSRVKFSRSADAPAYQQGQNQLYNELNLGRREEYDVLDKRRGRDPEMGGKPRRKNPQEGLYNELQKDKMAEAYSEIGMKGERRRGKGHDGLYQGLSTATKDTYDALHMQALPPR
In experiment [6], B2 registered a specific lysis of K562/SLAMF7 target cells by CD8+ CAR-T cells without dasatinib, t=6 h of 67% and a specific lysis of K562/SLAMF7 target cells by CD8+ CAR-T cells without dasatinib, t=12 h of 85%.

B3: ROR1 CAR with 4-1BB costimulatory domain (receptor)
chain: QVQLVESGGALVQPGGSLTLSCKASGFDFSAYYMSWVRQAPGKGLEWIATIYPSSGKTYYAASVQGRFTISADNAKNTVYLQMNSLTAADTATYFCARDSYADDGALFNIWGQGTLVTVSSGGGGSGGGGSGGGGSQLVLTQSPSVSAALGSSAKITCTLSSAHKTDTIDWYQQLAGQAPRYLMYVQSDGSYEKRSGVPDRFSGSSSGADRYLIISSVQADDEADYYCGADYIGGYVFGGGTQLTVGESKYGPPCPPCPMFWVLVVVGGVLACYSLLVTVAFIIFWVKRGRKKLLYIFKQPFMRPVQTTQEEDGCSCRFPEEEEGGCELRVKFSRSADAPAYQQGQNQLYNELNLGRREEYDVLDKRRGRDPEMGGKPRRKNPQEGLYNELQKDKMAEAYSEIGMKGERRRGKGHDGLYQGLSTATKDTYDALHMQALPPR
In experiment [7], B3 registered an IFN-γ in supernatant (ELISA) of co-culture with RCH-ACV target cells, untreated CD8+ CAR-T cells of 1310 pg/mL; a proliferation index (CFSE) after 72 h co-culture with RCH-ACV, untreated CD8+ CAR-T cells of 2.84; a specific lysis of K562/ROR1 target cells by CD8+ CAR-T cells without dasatinib, t=10 h of 94%; a specific lysis of K562/ROR1 target cells by CD8+ CAR-T cells without dasatinib, up to t=5 h of 73%. The molecule also registered a specific lysis of RCH-ACV target cells by untreated CD8+ CAR-T cells, t=8 hours in experiment [7] greater than 90%.
